Values joined by “and” are separate entries in the source; they are usually repeats but may differ in a detail not shown here. Equal values may be shown once.
B1: DmpR^WT, full-length DmpR (di-methyl phenol regulator) bearing an N-terminal 6 × His tag (natural protein, Pseudomonas putida KCTC 1452, UniProt Q7WSM9 1-563, looked up)
chain: MPIKYKPEIQHSDFKDLTNLIHFQSTEGKIWLGEQRMLLLQVSAMASFRREMVNTLGIERAKGFFLRQGYQSGLKDAELARKLRPNASEYDMFLAGPQLHSLKGLVKVRPTEVDIDKECGRFYAEMEWIDSFEVEICQTDLGQMQDPVCWTLLGYACAYSSAFMGREIIFKEVSCRGCGGDKCRVIGKPAEEWDDVASFKQYFKNDPIIEELYELQSQLVSLRTNLDKQEGQYYGIGQTPAYQTVRNMMDKAAQGKVSVLLLGETGVGKEVIARSVHLRSKRAAEPFVAVNCAAIPPDLIESELFGVEKGAFTGATQSRMGRFERADKGTIFLDEVIELSPRAQASLLRVLQEGELERVGDNRTRKIDVRVIAATHEDLAEAVKAGRFRADLYYRLNVFPVAIPALRERREDIPLLVEHFLQRFHQEYGKRTLGLSDKALEACLHYSWPGNIRELENVIERGIILTDPNESISVQALFPRAPEEPQTASERVSSDGVLIQPGNGQGSWISQLLSSGLSLDEIEESLMREAMQQANQNVSGAARLLGLSRPALAYRLKKIGIEG
notes: DmpR (CapR) of Pseudomonas putida KCTC 1452, codons 1-563 (wild type), GenBank AAP46187.1; 66 kDa with tag; Mixture of dimers and tetramers without phenol, predominantly a tetramer with phenol; Vector pProEX HTa; also called CapR; wild type DmpR; source: E. coli BL21-CodonPlus (DE3)-RIL, purified (His-Trap HP, Superdex 200); not shown: His6, N-terminal, kept

Assays:
[1] = target: DmpR^ΔS, truncated DmpR lacking only the sensory domain (residues 205–563) (Pseudomonas putida KCTC 1452); test: native gel or EMSA; blue native PAGE of truncated DmpR proteins after incubation with ATP or ATPγS, without phenol
[2] = target: DmpR^ΔS, truncated DmpR lacking only the sensory domain (residues 205–563) (Pseudomonas putida KCTC 1452); test: SEC-MALS; SEC combined with MALS of DmpR^ΔS
[3] = target: eGFP-DmpR^WT, fusion of eGFP and N-terminally 6 × His-tagged DmpR^WT (Pseudomonas putida KCTC 1452); test: single-molecule photobleaching (TIRF); eGFP-DmpR^WT (100 pM) held by biotinylated anti-GFP antibody on streptavidin surface, PBS, with 3 mM phenol; addition of 1 mM ATP changed nothing
[4] = target: eGFP-DmpR^WT, fusion of eGFP and N-terminally 6 × His-tagged DmpR^WT (Pseudomonas putida KCTC 1452); test: single-molecule fluorescence imaging (TIRF); biotinylated σ^54_((1–119))-CPD immobilised through biotin-streptavidin; eGFP-DmpR^WT added with phenol and ATPγS; bleaching steps of bound eGFP-DmpR counted
[5] = target: eGFP-DmpR^WT, fusion of eGFP and N-terminally 6 × His-tagged DmpR^WT (Pseudomonas putida KCTC 1452); test: single-molecule photobleaching (TIRF); eGFP-DmpR^WT (100 pM) held by biotinylated anti-GFP antibody on streptavidin surface, PBS, without phenol; steps of eGFP bleaching counted
[6] = target: eGFP-DmpR^WT, fusion of eGFP and N-terminally 6 × His-tagged DmpR^WT (Pseudomonas putida KCTC 1452); test: single-molecule fluorescence imaging (TIRF); eGFP-DmpR^WT (100 pM, with 1 mM MgCl2, 3 mM phenol, 1 mM ATPγS) held by biotinylated anti-GFP antibody; 1 nM Cy5-labelled σ^54_((1–119))-CPD added; 50 mM HEPES-NaOH pH 7.5, 300 mM NaCl, 5 mM MgCl2
[7] = target: DmpR^ΔD, truncated DmpR derivative (aa 18–481) with C119S/C137S (Pseudomonas putida KCTC 1452); test: crystal structure; DmpR^ΔD crystallised with 10 mM phenol and 3 mM AMP-PNP, sitting drop, 4 °C; 3.4 Å
[8] = target: DmpR^ΔD, truncated DmpR derivative (aa 18–481) with C119S/C137S (Pseudomonas putida KCTC 1452); test: not stated; DmpR^ΔD in the presence of phenol (Supplementary Fig. 2a, b)
[9] = target: DmpR (Pseudomonas putida, UniProt Q7WSM9, C119S/C137S); test: ([…] Å) and isothermal titration calorimetry; type: binding
[10] = target: T1, DmpR (Pseudomonas putida, UniProt Q7WSM9); test: activation of ATPase activity (radiolabelled ATP, TLC); phenol-induced tetramerization (BN-PAGE, SEC-MALS, single-molecule photobleaching); type: biochemical
T1 construct: DmpR^WT, full-length (1–563), N-terminal 6 × His tag
T1 sequence (Q7WSM9 1-563): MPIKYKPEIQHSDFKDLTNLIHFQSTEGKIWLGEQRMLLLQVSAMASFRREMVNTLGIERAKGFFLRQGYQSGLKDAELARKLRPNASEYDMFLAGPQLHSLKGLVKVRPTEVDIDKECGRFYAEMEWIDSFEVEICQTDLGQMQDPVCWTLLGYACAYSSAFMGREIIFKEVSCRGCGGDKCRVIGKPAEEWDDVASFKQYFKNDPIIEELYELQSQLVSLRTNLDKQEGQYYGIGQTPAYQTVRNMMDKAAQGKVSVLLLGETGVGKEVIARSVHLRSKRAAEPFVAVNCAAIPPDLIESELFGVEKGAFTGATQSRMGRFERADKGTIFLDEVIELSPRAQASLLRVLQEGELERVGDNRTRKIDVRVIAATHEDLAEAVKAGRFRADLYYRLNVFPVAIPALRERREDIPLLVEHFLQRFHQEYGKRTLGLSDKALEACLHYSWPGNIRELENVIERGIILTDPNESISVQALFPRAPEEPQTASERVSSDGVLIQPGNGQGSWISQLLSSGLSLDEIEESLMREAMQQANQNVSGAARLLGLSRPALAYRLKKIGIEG

[11] = target: the molecule itself; test: native gel or EMSA; blue native PAGE (4–16% gradient gel), 20 µM DmpR, 20 min at 25 °C, without phenol
[12] = target: B1; test: ITC; MicroCal Auto-iTC200, 25 °C; DmpR in the cell, σ^54_((1–119))-CPD (400 µM) as injectant; with phenol and ATPγS; details: both partners purified

Molecule “DmpR^ΔS, truncated DmpR lacking only the sensory domain (residues 205–563) (domain or fragment)” has a stoichiometry N [1] of 4 and a stoichiometry N [2] of 4.

In the case of “eGFP-DmpR^WT, fusion of eGFP and N-terminally 6 × His-tagged DmpR^WT (natural protein)”, the percent of molecules with four-step photobleaching (tetramers) [3] is reported as 34%, the percent of molecules with two-step photobleaching (dimers) [3] is reported as 17% and the stoichiometry N [4] is reported as 4. The percent of molecules with four-step photobleaching (tetramers) [5] was 19%, the percent of molecules with three-step photobleaching (trimers) [5] was 14% and the percent of molecules with two-step photobleaching (dimers) [5] was 32%. It also gave a stoichiometry N [6] of 4.

In the case of “DmpR^ΔD, truncated DmpR derivative (aa 18–481) with C119S/C137S (domain or fragment)”, the stoichiometry N [7] is reported as 4 and the stoichiometry N [8] is reported as 4.

Oc1ccccc1 [phenol] was tested, and the Kd [9] was ~12 µM and the “activation of ATPase activity (radiolabelled ATP, TLC); phenol-induced tetrameri” value [10] was “The DmpR^WT and DmpR^ΔD proteins exhibited ATP hydrolysis in the presence of phenol”.

For B1, the “stoichiometry N” value [11] was 2 and 4.

B2: σ^54_((1–119))-CPD, N-terminal residues of σ^54 (aa 1–119) fused to a C-terminal cysteine protease domain (CPD) (domain or fragment, UniProt P0A171 1-119, looked up)
chain: MKPSLVLKMGQQLTMTPQLQQAIRLLQLSTLDLQQEIQEALESNPMLERQEDGEDFDNSDPMADNAENKPAAEVQDNSFQESTVSADNLEDGEWSERIPNELPVDTAWEDIYQTSASSL
notes: also called N-terminal peptide of σ^54; σ^54 peptide; source: E. coli BL21-CodonPlus (DE3)-RIL, purified (His-Trap HP, Superdex 200); not shown: CPD (cysteine protease domain), C-terminal, kept
B2 was tested, and the Kd [12] was ~4 µM and the “stoichiometry N” value [12] was 0.86 ± 0.022.

Reference: article PMC7264223, “Tetrameric architecture of an active phenol-bound form of the AAA^+ transcriptional regulator DmpR” (Nature Communications, 2020)
